Measured values: the nanobody polyreactivity screen of Harvey et al. (2022)

test: yeast display, Sf9 membrane polyspecificity reagent, FACS + sequencing; frameworks hold sequencing errors
Outline: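 Nanobodies from a synthetic yeast display library (Saccharomyces cerevisiae BJ5465), induced 36–48 hours with galactose, were stained 1 hour at 4 °C with 10% biotinylated, detergent-solubilized Sf9 membrane reagent, enriched on streptavidin microbeads, then FACS-sorted. Anti-HA (expression) and streptavidin (reagent binding) fluorescence set low and high (top ~1%) gates. Polyreactivity labels come from the gate of origin. Genes were colony-PCR amplified, MiSeq 2 × 250 sequenced and filtered by CDR length.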

Sequence	polyreactivity (PSR sort gate)
QVQLVESGGGLVQAGGSLRLSCAASGRIFNAYAMGWYRQAPGKERELVAAISSIGGRTYYADSVKGRFTISRDNAKNTDYLQMNSLKPEDTAVYYCAASRRSRQYRYDYWGQGTQVTVSS	high polyreactivity
QVQLVESGGGLVQAGGSLRLSCAASGRIFNFYAMGWYRQAPGKERELVAAITRGGSTYYADSVKGRFTISRDNAKNTVYLQMNSLKPEDTAVYYCNALNRYYDGDYYYWGQGTQVTVSS	high polyreactivity
QVQLVESGGGLVQAGGSLRLSCAASGRIFNGYAMGWYRQAPGKERELVAAITTSGGSTYYADSVKGRFTISRDNAKNTVYLQMNSLKPEDTAVYYCAKYYPRYAYDYWGQGTQVTVSS	low polyreactivity
QVQLVESGGGLVQAGGSLRLSCAASGRIFNHNDMGWYRQAPGKERELVAAIDGSDSSTYYADSVKGRFTISRDNAKNTVYLQMNSLKTEDTAVYYCNADTNWLYTTGKYDYWGQGTQVTVSS	low polyreactivity
QVQLVESGGGLVQAGGSLRLSCAASGRIFNIYAMGWYRQAPGKERELVAAIRGRGGSTYYADSVKGRFTISRDNAKNTVYLQMNSLKPEDTAVYYCAADSGPFYSKTQTRYGYWGQGTQVTVSS	high polyreactivity
QVQLVESGGGLVQAGGSLRLSCAASGRIFNIYAMGWYRQAPGKERELVAAISGSGGRTSYADSVKGRFTISRDNAKNTVYLQMNSLKPEDTAVYYCAADYSYYTSFRYDYWGQGTQVTVSS	low polyreactivity
QVQLVESGGGLVQAGGSLRLSCAASGRIFNLYAMGWYRQAPGKERELVAAISYSGGRTYYADSVKGRFTISRDNAKNTVYLQMNSLKPEDTAVYYCNTVRGSVRQAGVGYDYWGQGTQVTVSS	high polyreactivity
QVQLVESGGGLVQAGGSLRLSCAASGRIFNLYAMGWYRQAPGKERELVAGIRWSTGSTYYADSVKGRFTISRDNAKNTVYLQMNSLKPEDTAVDYCAVRYYCSGRYYYTYYSWGQGTLVTVSS	high polyreactivity
QVQLVESGGGLVQAGGSLRLSCAASGRIFNPNGMGWYRQAPGKERELVAVITRSGTSTYADSVKGRFTISRDNAKNTVYLQMNSLKPEDTAVYYFATRYRWTPYDYWGQGTQVTVSS	low polyreactivity
QVQLVESGGGLVQAGGSLRLSCAASGRIFNPYVMGWYRPAPGKERELVAAISSGGRTYYADSVKGRFTISRDNAKNTVYLQMNSLKPEDTTVYYCAREQYRRYSGYGYWGQGTQVTVSS	high polyreactivity
QVQLVESGGGLVQAGGSLRLSCAASGRIFNQYCMGWYRQAPGKERELVAAIRSGDSTNYADSVKGRFTISRDNAKNTVYLQMNSLKPEDTAVYYCARDRPGDYAGYDYWGQGTQVTVSS	low polyreactivity
QVQLVESGGGLVQAGGSLRLSCAASGRIFNQYGMGWYRQAPGQEMELVAAIRSGDSTNYADSVKGRFTISRDNAKNTVYLQMNSLKPEVTAVYYCARDRPGDYAGYDYWGQGTEVTVSS	low polyreactivity
QVQLVESGGGLVQAGGSLRLSCAASGRIFNRNAMGWYRQAPGKERELVAAITRGGRTNYADSVKGRFTISRDNAQNTVYLQMNSLKPEDTAVYYCAAAYYGSHGRYDYWVQGTQVTVSS	high polyreactivity
QVQLVESGGGLVQAGGSLRLSCAASGRIFNRNVMGWYRQAPGKERELVAAISYGTGSTYYADSVKGRFTISRDNAKNTVYLQMNSLKPEDTAVYYCATRYRVRDDGEYDYWGHGTQVTVSS	high polyreactivity
QVQLVESGGGLVQAGGSLRLSCAASGRIFNRYAMGLYSQAPGKERELVAAISYTGGRTYYADSVKGRFTISRDNAKNTVYLQRNCLTPEDTAVYYCNVYVIHWDFTTSSVRRFDYWGQGTQVNVSS	high polyreactivity
QVQLVESGGGLVQAGGSLRLSCAASGRIFNRYGMGWYRQAPGKERELVAAITWRGGNTYYADSVKGRFTISRDNAKNTVYLQMNSLKPEDTAVYYCAADGGYSAYFGAYDYWGQGTQVTVSS	high polyreactivity
QVQLVESGGGLVQAGGSLRLSCAASGRIFNSNTMGWYRQAPGKERELVAAITYSGGSTYYADSVKGRFSISRDNAKNTVYLQMNSLKPEDTAVYYCAASYYYGRRYDYWGQGTQVTVSS	low polyreactivity
QVQLVESGGGLVQAGGSLRLSCAASGRIFNSYAMGWYRQAPGKERELVAAISSGGSTYYADSVKGRFTFSRDNAKNTVYLQMNSLKPEDTAVYYCADRIWTGRGRKLGYGYDYWGQGTQVTVSS	low polyreactivity
QVQLVESGGGLVQAGGSLRLSCAASGRIFNVNALGWYRQAPGKERELVAAINWSGGRTYYADSVKGRFTISRDNAKNTVYLQLNSLKPEDTAVYYCAADTRYPYRAYDYWGQGTQVTVAS	high polyreactivity
QVQLVESGGGLVQAGGSLRLSCAASGRIFNVYAMGWYRQAPGKERELVASITSAGSTYYADSVKGRFTISRDNAKITVYLQMNSLKPEDTAVYYCAADSYSVYYYTYDSWGQGTQVTVSS	low polyreactivity
QVQLVESGGGLVQAGGSLRLSCAASGRIFNVYAMGWYRQAPGKERELVASITSAGSTYYADSVKGRFTISRDNAKNTVYLQMNSLKPEDTPVYDCAADSYSVYYYTYDSWGQGTQVTVSS	low polyreactivity
QVQLVESGGGLVQAGGSLRLSCAASGRIFNYNAMGWYRQAPGKEREFVATISGRAGRTYYADSVKGRFTISRDNAKNTVYLQMNSLKPEDTAVYYCNAGQWRYPGLYYYWGQGTQVTVSS	high polyreactivity
QVQLVESGGGLVQAGGSLRLSCAASGRIFNYYAMGWYRQAPGKERELVAAINSGGSTYADSVKGRFTISRDNAKNTVYLQMNSLKPEDTAVYYSAKDGQLQSGRERPSGYDHWGQGTQVTVSS	low polyreactivity
QVQLVESGGGLVQAGGSLRLSCAASGRIFPDNTLGWYRQAPGKERELVAVITYSGGSTYYADSVKGRFTISRDNAKNTVYLQMNSLKPEDTAVYYCAARDYYIWFAEVDSWGQGTQVTVSS	low polyreactivity
QVQLVESGGGLVQAGGSLRLSCAASGRIFPGNAMGGYRQAPGKERELVATISRIGGSTYADSVKGRFTISRDNAKNTVYLQMNSLKPEDTAVYYCAKTWVSRDVEYDYWGQGTQVTVSS	low polyreactivity
QVQLVESGGGLVQAGGSLRLSCAASGRIFPGNAMGWYRQAPGKEREFVAAINTRGGITYYADSVKGRFTISRDNAKNTVYLQMNSLKPEDTAVYYCARTYYPVDGEYDYWGQGTQVTVSS	low polyreactivity
QVQLVESGGGLVQAGGSLRLSCAASGRIFPGYAMGWYRQAPGKERELVAAISGSGVRTYYADSVKGRFTISRDNAKNTFYLQMNSLKPEDTAVYYCAADSKIRTKLDYWGQGTQVTVSS	low polyreactivity
QVQLVESGGGLVQAGGSLRLSCAASGRIFPGYAMGWYRQAPGKERELVAGITWRTARTYYADSVKGRFTISRDNAKNTVYLQMNSLKPEDTAVYYCAAKYARYGRHVIFDYWGQGTQVTVSS	high polyreactivity
QVQLVESGGGLVQAGGSLRLSCAASGRIFPGYAMGWYRQAPGKERELVASIRWSGDSTYYADSVKGRFTISRDNAKNTVYLQMNSLKPEDTAVYYCNRRWYRGDYWGQGTQVTVSS	low polyreactivity
QVQLVESGGGLVQAGGSLRLSCAASGRIFPHYAMGWYRQAPGKERELVAAISRSGVSTYYADSVKGRFTISRDNAKNTVYLQMNSLKPEDTAVYYCNIVRYSFLYSVTYNYWGQGTQVTVSS	high polyreactivity
